Laboratory results from patent publication US20190248902A1 (published 2019).

B1: 7G4 (antibody, V domains shown)
VH: QVQLVESGGGVVQPGRSLRLSCAASGFTFNNYVMHWVRQAPGKGLEWVAVIWYDGSNKYYADSVKGRFTISRDNSKNTLYLQMTSLRAEDTAVYYCAREKYSSNWYDYGMDVWGQGTTVTVSS
VL: DIQMTQSPSSLSASVGDRVTITCRASQGIRNDLGWYQQRPGKAPKRLIYAASSLQSGVPSRFSGSGSGTEFTLTISSLQPEDSATYYCLHQYSYPRTFGQGTKVEIK
notes: Tested as hybridoma supernatant at normalized concentration
B2: 7E11 (antibody, V domains shown)
VH: QVQLVESGGGVVQPGRSLRLSCAASGFTFSSFGMHWVRQAPGKGLEWVAIIWHDGSNKYYADSVKGRFTISRDNSNNTLYLQMSSLRAEDTAVYYCARDLSMGGMDVWGQGTTVTVSS
VL: DIQMTQSPSSLSASVGDRVTIACRASQNIISYLNWYQQKPGKAPKFLIYTASSLQSGVPSRFSGSGSGTDFTLTISSLQPEDFAIYYCQQTYSTPLTFGGGTKVEIK
notes: as for B1
B3: 75G3 (antibody, V domains shown)
VH: QVQLQQWGAGLLKPSETLSLTCAVYGGSLSGSYWSWIRQPPGKGLEWIGEINLSGSTNYNPSLKSRVTISVDTSKSQFSLTLRSVTAADTAVYYCARDYGGLDYWGQGTLVTVSS
VL: EIVLTQSPGTLSLSPGERATLSCRARQNVDSSYLAWYQQKPGQAPRLLIYGASSRATGIPDRFSGSGSGTDFTLTISRLEPEDFAVFYCQQYERSPWTFGQGTKVEIK
notes: as for B1
B4: 218G4 (antibody, V domains shown)
VH: QVQLVESGGGVVQPGRSLRLSCAASGFTFSSYGLHWVRQAPGKGLEWVAVIWYDGSNKYYADSVKGRFTISRDNSKNTLYLQMNSLRVEDTAVYYCANWYYYYYGMDVWGQGTTVTVSS
VL: QSVLTQPPSVSAAPGQKVTISCSGSSSNIGNNYVSWYQQLPGTAPKLLLYDSNKRPSGIPARFSGSKSGTSATLGITGLQTGDEADYYCGTWDSSLNTVVFGGGTKLTVL
notes: as for B1
B5: 198D2 (antibody, V domains shown)
VH: QVQLVESGGGVVQPGRSLRLSCAASGFTFRSYGMHWVRQAPGKGLEWVAVIIYDGSYKYYADSVKGRFTISRDNSKNTLYLQMNSLRAEDTAVYYCARTYSGGMDVWGQGTTVTVSS
VL: QSVLTQPPSVSAAPGQKVTISCSGSSSNIGSNYVSWYQQLPGTAPKVLIYDNNKRPSGIPDRFSGSKSGTSATLGITGLQTGDEADYYCGTWDSRLNVGVFGGGTKLTVL
notes: as for B1
B6: 202A3 (antibody, V domains shown)
VH: QVQLEQSGAEVKKPGASVKVSCKASGYTFTSYDINWVRQATGQGLEWLGWMNPKRGNTGYAQKFQGRVTMTRNTSISTAHMELSSLRSEDTAVYYCARGRYSREDYYYYYDMDVWGQGTTVTVSS
VL: DIQMSQSPSSLSASVGDRVTITCRASQGIRNDLGWYQQKPGKAPKRLICAASRLQSGVPSRFSGSGSGTEFTLTISSLQPEDFAIYYCLQHHDYPFTFGPGTKVDIK
notes: as for B1
B7: 194C10 (antibody, V domains shown)
VH: QVQLQQWGAGLLKPSETLSLTCAVSGGSFRYYYWSWIRQPPGKGLEWFGEINHSGSTNYNPSLKSRVTISIDTSKNQFSLKLRSVTAADTAVYYCARDYGAFDIWGQGTMVTVSS
VL: EIVLTQSPGTLSLSPGERATLSCRASPSVNSGYLAWYQQKPGQTPRLLIFGASSRATGIPDRFSASGSGADFTLTISRLEPEDFAVYFCQQYESSPWTFGQGTKVEIK
notes: as for B1
B8: 176H4 (antibody, V domains shown)
VH: QVQLVESGGGVVQPGRSLRLSCAASGFTFSSYGMHWVRQAPGKGLEWVAIIWYDGSYKYYADSVKGRFTISRDNSKNTLYLQMSSLRAEDTAVYYCARDAHDFWSGYFAYWGQGALVTVSS
VL: DIVMTQTPLSLSVTPGQPASISCKSSQSLLHGDGKTYLYWYLQKPGQPPQLLIYEVSNRFSGVPDRFSGSGSGTDFTLKISRVEAEDVGIYYCMQSIQIPWTFGQGTRVEIK
notes: as for B1
B9: 190F8 (antibody, V domains shown)
VH: QVQLVESGGGVVQPGRSLRLSCAASGFTFSTYGMHWVRQAPGKGLEWVAVIWYDGSNKNYADSVKGRFTISRDNSKNTLYLQMNSLRAEDTAVYYCARDQGVGYDGLDVWGQGTTVTVSS
VL: DIQMTQSPSSLSASVGDRVTITCRTSQGIGNYLAWFQQKPGKAPKSLLYKASSLQSGVPSKFSGSGSGTDFTLTISSLQPEDFATYYCQQYMTYPLTFGGGTKVEIK
notes: as for B1
B10: 197G3 (antibody, V domains shown)
VH: QVQLVESGGGVVQPGRSLRLSCVASGFTFSSHGMHWVRQAPGKGLEWVAVIWYDGSNKNYADSVKGRFTISRDNSKNTLYLQMNSLRAEDTAVYYCARDPSVGYDGMDVWGQGTTVTVSS
VL: DIQMTQSPSSLSASVGDRVTITCRASQGIGNHLAWFQQKPGKAPKSLIYAASSLQSGVPSKFSGSRSGTDFSLTISSLQPEDFATYYCQQYSNYPVTFGPGTKVDIK
notes: as for B1
B11: 194C1 (antibody, V domains shown)
VH: QVQLVESGGGVVQPGRSLRLSCAASGFTFSSYGMHWVRQAPGKGLEWVAVIWYDGSNEHYADSVKGRFTISRDNSKNTLYLQMNSLRAEDTAVYYCARNRGVGYYGLDVWGQGTTVTVSS
VL: DIQMTQSPSSLSASVGDRVTITCRASQGISNYLAWFQQKPGKAPKSLIYAASSLQSGVPSKFSGSGSGTDFTLTISSLQPEDFATYYCLHYLTYPLTFGGGTKVEIK
notes: as for B1
B12: 191G1 (antibody, V domains shown)
VH: QVQLVESGGGVVQPGRSLRLSCAASGFTFSSYGMHWVRQAPGKGLEWVAVIWYDGSNEHYADSVKGRFTISRDNSKNTLYLQMNSLRAEDTAVYYCARDRGVGYYGLDVWGQGTTVTVSS
VL: DIQMTQSPSSLSASVGDRVTITCRASQGISNYLAWFQQKPGKAPKSLIYAASSLQSGVPSKFSGSGSGTDFTLTISSLQPEDFATYYCQHYLTYPLTFGGGTKVEIK
notes: as for B1
B13: 198G3 (antibody, V domains shown)
VH: QVQLVESGGGVVQPGRSLKLSCAASGFTFSTYGMHWVRQAPGKGLEWVAVIWYDGTNKNYADSVKGRFTISRDNSKNTLCLQMNSLRAEDTAVYYCARDQGVGYDGLDVWGQGTTVTVSS
VL: DIQMAQSPSSLSASVGDRVTITCRTSQGIGKYLAWFQQKPGKAPKSLLYKASSLQGGVPSKFSGSGSGTDFTLTISSLQPEDFATYYCQQYMTYPLTFGGGTKVEIK
notes: as for B1
B14: 191G10 (antibody, V domains shown)
VH: QVQLVESGGGVVQPGRSLRLSCAASGFTFSSYGMHWVRQAPGKGLEWVAVIWYDGSNKNYADSVKGRFTISRDNSKNTLYLQMNSLRAEDTAVYYCARDQGVGYDGLDVWGQGTTVTVSS
VL: DIQMTQSPSSLSASVGDRVTITCRTSQGIGKYLAWFQQKPGKAPKSLLYKVSSLQSGVPSKFSGSGSGTDFTLTISSLQPEDFATYYCQQYMTYPLTFGGGTKVEIK
notes: as for B1
B15: 6G7 (antibody, V domains shown)
VH: QVQLVESGGGVVQPGRSLRLSCAASGFTFSSYGMHWVRQTPGKGLEWVAIISYVGKNKYYADSVKGRFTISRDNSKNTLYLQMNSLRAEDTAVYYCARRGNSYGGYGMDVWGQGTTVTVSS
VL: DIQMTQSPSSRSASVGDRVTITCQASQDISNYLNWCQQKPGKALKLLIYDASTLETGVPSRFSGSGSGTDFTFTISSVQPEDIATYYCQQYDNVPITFGQGTRLEIK
notes: as for B1

Legend:
[1] = target: T1, Mouse ASGR-1 (mouse, UniProt P34927 1-284); assay: FACS on transfected HEK 293 cells or membrane preps on beads; binding = signal at least 2x irrelevant IgG
T1 construct: Expressed on HEK 293 cells or as membrane prep on beads; cDNA GenBank BC022106.1; also called muASGR-1; mASGR-1
T1 sequence: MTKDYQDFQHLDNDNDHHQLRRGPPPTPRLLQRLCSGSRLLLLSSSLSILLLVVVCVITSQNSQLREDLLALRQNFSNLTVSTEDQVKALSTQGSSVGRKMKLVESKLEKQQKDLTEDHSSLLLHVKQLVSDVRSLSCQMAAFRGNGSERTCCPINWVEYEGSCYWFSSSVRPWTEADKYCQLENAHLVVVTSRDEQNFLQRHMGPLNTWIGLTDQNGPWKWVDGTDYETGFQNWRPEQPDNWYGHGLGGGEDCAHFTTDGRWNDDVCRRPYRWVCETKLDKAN
Description: Human ASGR-1-specific, ligand competing antibody samples were tested for binding to ASGR-1 from other species (cynomologus monkey ASGR-1, mouse ASGR-1, rat ASGR-1, dog ASGR-1, and pig ASGR-1) as well as to human ASGR-2 in FACS binding assays at normalized antibody concentrations. For cell-based assays, HEK 293 cells expressing the appropriate antigen of interest were mixed with antibody sample or controls, incubated for 1 hour at 4° C., and then washed twice. Cells with bound antibody were then incubated with Alexa Fluor® 647 IgG Fc fragment-specific detection antibody and 7-AAD viability stain for 15 minutes at 4° C., washed once and resuspended in FACS buffer. Samples were analyzed using a BD Accuri™ Flow Cytometer and an Intellicyt HyperCyt Autosampler. As a negative control, supernatants and controls were also screened against HEK 293 cells transfected with empty parental vector. […] For membrane-prep binding assays, ASGR-1 species specific membrane preps were used to coat LumAvidin® microspheres (beads) and tested for binding to selected hybridoma supernatants or controls. Briefly, ASGR-1 species specific membrane preps were incubated with streptavidin-coated LumAvidin® beads for 45 minutes in the dark at room temperature and washed twice. Beads were resuspeneded in FACS buffer containing Stabilguard®. Antigen-bound beads were then incubated with normalized antibody sample for 1 hour in the dark at room temperature, washed twice, incubated with Alexa Fluor® 488 IgG Fc fragment-specific detection antibody for 15 minutes in the dark at room temperature, washed once and finally resuspended in FACS buffer. Samples were analyzed using an Intellicyt iQue™ Screener Platform. FACS buffer supplemented with 1 mM Calcium Chloride was used in all steps. As a negative control, supernatants and controls were also screened against a non-ASGR-1 antigen membrane prep coated on the LumAvidin® beads.

[2] = target: T2, Pig ASGR-1 (pig); assay: FACS on transfected HEK 293 cells or membrane preps on beads; Y = signal at least 2x irrelevant IgG
T2 construct: Expressed on HEK 293 cells or as membrane prep on beads; cDNA GenBank NM_001244458
T2 chain: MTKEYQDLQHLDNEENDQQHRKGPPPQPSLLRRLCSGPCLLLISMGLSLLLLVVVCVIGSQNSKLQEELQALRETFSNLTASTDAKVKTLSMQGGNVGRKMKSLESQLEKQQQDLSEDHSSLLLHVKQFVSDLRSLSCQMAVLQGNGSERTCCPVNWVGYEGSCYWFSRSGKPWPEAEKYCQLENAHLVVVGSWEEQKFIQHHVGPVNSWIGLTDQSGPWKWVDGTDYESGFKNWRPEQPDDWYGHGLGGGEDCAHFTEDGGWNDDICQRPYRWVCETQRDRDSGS
How it was run: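 Antibodies at normalized concentrations bound 1 h at 4° C to HEK 293 cells expressing each antigen, then Alexa Fluor 647 anti-Fc plus 7-AAD 15 min at 4° C, flow cytometry; empty-vector cells as negative. Alternatively, species ASGR-1 membrane preps on streptavidin beads, antibody 1 h RT, Alexa Fluor 488 anti-Fc; FACS buffer with 1 mM CaCl2 throughout.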

| binding result [1] | binding result [2] | Binder |
| --- | --- | --- |
| no binding | binds | B1 |
| no binding | binds | B2 |
| no binding | binds | B3 |
| no binding | binds | B4 |
| no binding | binds | B5 |
| no binding | binds | B6 |
| no binding | binds | B7 |
| no binding | binds | B8 |
| no binding | binds | B9 |
| no binding | binds | B10 |
| no binding | binds | B11 |
| no binding | binds | B12 |
| no binding | binds | B13 |
| no binding | binds | B14 |
| no binding | – | B15 |
